Measured values: IntAct's records for PubMed 17341134

Molecular target: cdk5_rat Cdk5 (UniProt Q03114)

Substance: BDNF/NT-3 growth factors receptor (Rattus norvegicus (Rat)), Q63604 S478A
- effect of a mutation on the interaction: decreasing interaction

Substance: BDNF/NT-3 growth factors receptor (Rattus norvegicus (Rat)), Q63604 T489A
- effect of a mutation on the interaction: decreasing interaction
